The values that follow come from publication doi:10.1101/144360 (bioRxiv, 2017).

One may read the Kd as the concentration at which binding is half-saturated. A high value points to lower affinity.

For the assay, the target named is T1, 6xHIS-SH3_(Boi1) (S. cerevisiae, UniProt P38041 13-77).
T1 sequence: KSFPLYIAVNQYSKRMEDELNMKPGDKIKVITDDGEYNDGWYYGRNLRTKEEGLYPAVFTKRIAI
Kind of assay: SPR. (In general: Surface plasmon resonance follows binding to a sensor surface in real time, without labels.)

AGT = not defined here

B1: 6xHis-Exo84_(121-141)-AGT (peptide)
chain: 6xHis-SVSSKGPSNSLNLSTADLSLN-{AGT}
modifications: reading uncertain; also: AGT tag covalently labeled with SNAP-Biotin
B1 yielded a Kd of roughly 1000 nM.
